The text below walks through data of paper PMC10041117.

The target of assay [1] is myosin S2Δ (fragment of the S2 region of myosin consisting of its first 128 residues). Kind of assay: MST; C0C2 constructs binding to myosin S2Δ; as in refs 15 and 25.
In assay [2] the target is isolated bovine native thin filaments (NTFs) (bovine), Q3ZC07. Kind of assay: co-sedimentation; C0C2 constructs cosedimented with isolated bovine native thin filaments (NTFs); as in ref. 15.

myosin S2Δ (fragment of the S2 region of myosin consisting of its first 128 residues), sequence (P12883 838-965, stated change not applied): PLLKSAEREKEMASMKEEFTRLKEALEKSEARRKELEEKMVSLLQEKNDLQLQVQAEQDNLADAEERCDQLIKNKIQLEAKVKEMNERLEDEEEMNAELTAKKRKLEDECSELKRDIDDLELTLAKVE

B1: mTFP-C0C2 (C0C2 of cMyBP-C conjugated to mTFP at its N terminus) (domain or fragment)
chain: MPEPGKRPVSAFTKKPRSVEVTAGSAAVFEAETERSGLKVQWQRDGSDIAANDKYGLAAEGKRHTLTVRDVGPDDQGSYAVIAGSSKVKFDLKVTEPAPPEKAESAVAPTSMEAPETPKEVPALATQLEGNVSSPEGSVSVTQDGSVAGSQGAPDDPIGLFLMRPQDGEVTVGGSIVFSARVAGASLLKPPVVKWFKGKWVDLSSKVGQHLQLHDSYDRASKVYLFELHITDAQATSAGGYRCEVSTKDKFDSCNFNLTVHEAIGSGDLDLRSAFRRTSLAGTGRRTSDSHEDAGTLDFSSLLKKSSFRRDSKLEAPAEEDVWEILRQAPPSEYERIAFQHGVTDLRGMLKRLKGMKHDEKKSTAFQKKLEPAYQVNKGHKIRLTVELADPDAEVKWLKNGQEIQMSGRYIFESIGAKRTLTISQCSLADDAAYQCVVGGEKCSTELFVKEP
modifications: not checked
Turning to B1, the results for the Kd in assay [1] and in assay [2] were 35 µM and 18 µM, respectively.

B2: N-terminal fragment of cMyBP-C containing domains C0 through C2 (C0C2), wild type (domain or fragment)
chain: MPEPGKRPVSAFTKKPRSVEVTAGSAAVFEAETERSGLKVQWQRDGSDIAANDKYGLAAEGKRHTLTVRDVGPDDQGSYAVIAGSSKVKFDLKVTEPAPPEKAESAVAPTSMEAPETPKEVPALATQLEGNVSSPEGSVSVTQDGSVAGSQGAPDDPIGLFLMRPQDGEVTVGGSIVFSARVAGASLLKPPVVKWFKGKWVDLSSKVGQHLQLHDSYDRASKVYLFELHITDAQATSAGGYRCEVSTKDKFDSCNFNLTVHEAIGSGDLDLRSAFRRTSLAGTGRRTSDSHEDAGTLDFSSLLKKSSFRRDSKLEAPAEEDVWEILRQAPPSEYERIAFQHGVTDLRGMLKRLKGMKHDEKKSTAFQKKLEPAYQVNKGHKIRLTVELADPDAEVKWLKNGQEIQMSGRYIFESIGAKRTLTISQCSLADDAAYQCVVGGEKCSTELFVKEP
modifications: not checked
In the case of B2, the results for the Kd in assay [1] and in assay [2] were 20 µM and 42 µM, respectively.
